{"source": "patent US20200292553A1", "about": "“COMPOSITION FOR PREDICTING OR DIAGNOSING LIVER DISEASE, AND LIVER DISEASE PREDICTION OR DIAGNOSIS METHOD USING SAME” (SEOUL NATIONAL UNIVERSITY HOSPITAL, priority 2017, published 2020)", "key": {"Kupffer cells": {"system": "Kupffer cells", "assay": "GDF15 mRNA expression after palmitate treatment, Kupffer cells", "format": "cell-based", "settings": "for increase in GDF15 mRNA expression: after 6 hours", "procedure": "Primary hepatic cells were isolated and differentiated into hepatocytes, HSCs, Kupffer cells, and liver sinusoidal endothelial cells (LSECs). Kupffer cells are macrophages present in the liver, and are known to play an essential role in the initiation of inflammation. To distinguish Kupffer cells and LSECs, magnetic-activated cell sorting (MACS) was performed using the MiniMACS™ separator system (MiltenyiBiotec, Seoul, Korea). The purity of LSECs was evaluated by fluorescence-activated cell sorting using anti-PE antibody (purity of 90% or higher). Primary cells were cultured in 1.5 mL of a serum-free medium for 4 hours, and treated with 5(w/w)% of bovine serum albumin (BSA, control), 200 μM palmitate/5(w/w)% BSA solution, and 500 μM palmitate/5(w/w)% BSA, respectively. After 3 and 6 hours, cells were collected and further analyzed. Reverse-transcription polymerase chain reaction (RT-PCR) and real-time PCR were performed to assess the expression of GDF15 mRNA after palmitate treatment."}, "primary hepatocytes": {"system": "primary hepatocytes", "assay": "rhGDF15 treatment of primary hepatocytes, immunoblotting", "format": "cell-based, mouse", "settings": "FIG. 4D", "procedure": "(§1) Recombinant human GDF15 (rhGDF15; R&D Systems; 957-GD-025) was added to LX-2 cells (human hepatic stellate cells, KAIST), cultured in the presence of 100 ng/mL GDF15 and 10 ng/mL TGF-β, and primary hepatocytes, directly isolated from the mouse liver, at […] per 3×10^5 cells/6 wells. The levels of fibrosis markers, such as alpha-smooth muscle actin (α-SMA) and collagen 1, were assessed by immunoblotting, immunohistochemistry, and immunofluorescence staining."}, "[1]": {"system": "LX-2 cells (human hepatic stellate cells)", "assay": "rhGDF15 treatment of LX-2 cells, fibrosis markers by immunoblotting and immunofluorescence", "format": "cell-based", "procedure": "as §1"}}, "data": [{"molecule": "CCCCCCCCCCCCCCCC(=O)O", "note": "[palmate, palmitate]", "values": [{"measurement": "increase in GDF15 mRNA expression", "setting": "Kupffer cells; 200 μM, P=0.009, FIG. 5B", "value": 2.5, "unit": "fold"}, {"measurement": "increase in GDF15 mRNA expression level", "setting": "Kupffer cells; 500 μM, after 3 hours, P=0.004, FIG. 5A", "value": "approximately 2 fold"}, {"measurement": "increase in GDF15 mRNA expression", "setting": "Kupffer cells; 500 μM, P=0.032, FIG. 5B", "value": 1.5, "unit": "fold"}]}, {"molecule": "rhGDF15: Recombinant human GDF15 (rhGDF15; R&D Systems; 957-GD-025), growth differentiation factor 15 protein (protein, listed as Homo sapiens) ARARNGDHCPLGPGRCCRLHTVRASLEDLGWADWVLSPREVQVTMCIGACPSQFRAANMHAQIKTSLHRLKPDTVPAPCCVPASYNPMVLIQKTDTGVSLQTYDDLLAKDCHCI", "values": [{"measurement": "phosphorylation of SMAD2 and SMAD3", "setting": "primary hepatocytes", "value": "upregulating"}, {"measurement": "cell apoptosis", "setting": "[1]; LX-2 cells, FIG. 4A", "value": "not influenced"}, {"measurement": "expression of fibrosis markers α-SMA and collagen 1", "setting": "[1]; LX-2 cells, immunoblotting, FIG. 4A", "value": "increased"}, {"measurement": "α-SMA expression, immunofluorescent staining", "setting": "[1]; LX-2 cells, treatment for 12 hours, FIG. 4B", "value": "high expression"}, {"measurement": "acute stimulatory effect on hepatocytes", "setting": "[1]; after 12 hours", "value": "remarkably reduced"}, {"measurement": "time to increase of α-SMA level after treatment", "setting": "[1]; after GDF15 treatment", "value": "≤ 12", "unit": "h"}, {"measurement": "time to induction of SMAD phosphorylation after treatment", "setting": "[1]; after GDF15 treatment", "value": "≤ 3", "unit": "h"}, {"measurement": "phosphorylation of SMAD2 and SMAD3", "setting": "[1]; printed as human hepatocytes, FIG. 4C (LX-2 cells)", "value": "increasing"}]}]}
